Experimental data from PMC7176406.

Biological target: tau (residues 149-395) labeled with Alexa Fluor 488 at C291 (human) (UniProt P10636)
Assay: fluorescence correlation spectroscopy

UniProt P10636, sequence (P10636 466-712 C639S): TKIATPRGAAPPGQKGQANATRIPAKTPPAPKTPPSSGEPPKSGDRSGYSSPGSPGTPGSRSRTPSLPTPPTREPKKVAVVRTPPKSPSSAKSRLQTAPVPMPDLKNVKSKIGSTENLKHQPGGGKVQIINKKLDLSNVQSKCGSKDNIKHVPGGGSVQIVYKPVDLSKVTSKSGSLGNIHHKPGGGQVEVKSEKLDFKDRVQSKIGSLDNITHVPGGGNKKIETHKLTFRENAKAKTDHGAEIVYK

fold weaker affinity than intact tubulin: 5 fold
maximum increase in diffusion time of tau: 0.15 ms
Substance: tailless tubulin (subtilisin-cleaved bovine brain tubulin) (from UniProt Q6B856 1-445) (complex)
